Literature values, collected in paper PMC2635555.

Molecular target: Histone H3 (H3K4me0) N-terminal tail (Homo sapiens) (UniProt P68431)

Chain of AIRE PHD1 (O43918 296-343): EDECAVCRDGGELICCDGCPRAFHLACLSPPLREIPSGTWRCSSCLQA

- Kd: 5 µM
Substance: AIRE PHD1 (from UniProt O43918)
